From patent US20230272067A1 (HUAHUI HEALTH, published 2023)
Positions count from the first letter of the chain named. Numbers in names are those of the source.

Experiments:
[1] = target: T1, extracellular domain (ECD) of mouse TIGIT (mouse, UniProt P86176 29-148, biotinylated (site not stated)); assay: SPR (Biacore T200), multi-cycle kinetics, FIG. 11 (hTIGIT or mTIGIT)
T1 construct: extracellular domain; Used captured on streptavidin in ELISA and as analyte in SPR (extracellular domain); also called mTIGIT-ECD; mTIGIT-ECD-Biotin; not shown: expressed as a biotinylated recombinant fusion protein
T1 sequence (looked up): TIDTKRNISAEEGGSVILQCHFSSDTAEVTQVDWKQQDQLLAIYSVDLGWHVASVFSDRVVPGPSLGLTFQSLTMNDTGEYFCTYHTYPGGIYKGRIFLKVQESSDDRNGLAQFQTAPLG

[2] = target: T2, extracellular domain (ECD) of human TIGIT (human, UniProt Q495A1 22-141, biotinylated (site not stated)); assay: as above
T2 construct: extracellular domain; Used captured on streptavidin in ELISA and as analyte in SPR (extracellular domain); also called hTIGIT-ECD; hTIGIT-ECD-Biotin; not shown: expressed as a biotinylated recombinant fusion protein
T2 sequence (looked up): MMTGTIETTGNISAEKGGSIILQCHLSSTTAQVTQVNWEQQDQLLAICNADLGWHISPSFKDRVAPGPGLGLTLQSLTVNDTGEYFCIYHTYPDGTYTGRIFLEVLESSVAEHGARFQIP

[3] = target: T3, full-length human TIGIT expressed on cells (human, UniProt Q495A1 22-244); assay: FACS on CHO cells transiently expressing full-length hTIGIT, hIgG1 format
T3 construct: whole, on cells; also called CHO-hTIGIT; YTS-hTIGIT
T3 sequence (looked up): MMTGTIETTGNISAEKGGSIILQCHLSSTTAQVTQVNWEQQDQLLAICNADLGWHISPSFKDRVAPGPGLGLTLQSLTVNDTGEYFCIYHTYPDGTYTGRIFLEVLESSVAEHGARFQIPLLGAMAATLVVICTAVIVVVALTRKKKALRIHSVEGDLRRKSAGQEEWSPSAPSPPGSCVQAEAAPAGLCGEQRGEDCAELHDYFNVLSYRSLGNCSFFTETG
Protocol: (§1) For epitope mapping, chimeras of human TIGIT IgV domain and N-terminal IgV domain D1 of hCD155 were constructed by replacing residues in the extracellular regions of hTIGIT with the corresponding residues from hCD155 D 1. These chimera and variants were expressed by transient transfection of CHO or 293T cells, their cell surface expression levels were assessed by using a mAb GC33 recognizing the N-terminal tag fused to each of the chimera and variant or hCD155-hFc (4). The binding of testing Abs in human IgG1 (hIgG1) format or hCD155-hFc to these transfectants were detected by using goat anti-human IgG-FITC antibody (Thermo Fisher Scientific). The cells were then analyzed with FACS machine (BD Accuri™ C6).
By transfecting CHO cells with these hTIGIT/hCD155 chimeras or hTIGIT variants, and by subsequently analyzing T4, CS19ME3-23, and CS19ME3-30-N Abs binding to these CHO transfectant cells by FACS, it was identified that the FG Loop in the extracellular IgV domain of hTIGIT is critical for these Abs′ binding (FIG. 12B). […] Thus, by binding to the FG Loop, these three Abs block the binding of TIGIT to its ligand CD155. Due to the high amino acid sequence homology in this loop between hTIGIT and mTIGIT, these three Abs are able to cross-react with both of them.

[4] = target: T4, hTIGIT variant S78A (full length, on 293T cells) (human, UniProt Q495A1 22-244); assay: FACS on 293T cells transiently expressing the variant
T4 construct: whole, on cells
T4 sequence (looked up): T3 sequence (looked up) with S57A
Protocol: as §1
(§2) To investigate the role of these residues in the binding of anti-TIGIT antibodies of the present disclosure to hTIGIT, three hTIGIT variants each having a single point mutation selected from S78A, […], and K82A were generated. By transfecting 293T cells with these hTIGIT variants and by subsequently analyzing CS19ME3-30-N Abs binding to these 293T transfectant cells by FACS, it was identified that none of the three residues in the extracellular IgV domain of hTIGIT is critical for these Abs′ binding (FIG. 12C).

[5] = target: T5, hTIGIT variant S80A (full length, on 293T cells) (human, UniProt Q495A1 22-244); assay: as above
T5 construct: whole, on cells; also called 580A [sic]
T5 sequence (looked up): T3 sequence (looked up) with S59A
Protocol: as §1, §2

[6] = target: T6, hTIGIT variant K82A (full length, on 293T cells) (human, UniProt Q495A1 22-244); assay: as above
T6 construct: whole, on cells
T6 sequence (looked up): T3 sequence (looked up) with K61A
Protocol: as §1, §2

[7] = target: T1, extracellular domain (ECD) of mouse …; assay: SPR (Biacore T200), multi-cycle kinetics
[8] = target: T2, extracellular domain (ECD) of human …; assay: SPR (Biacore T200), multi-cycle kinetics

Measured: binding result

B1: CS19ME3-23 (antibody, human IgG1, V domains shown)
VH: EVQLLESGGGLVQPGGSLRLSCAASGFTFSSYAMHWVRQAPGKGLEWVAVISYDGSNKYYADSVKGRFTISRDNSKNTLYLQMNSLRAEDTAVYYCATLEGGGRYYDFWSADYWGQGTLVTVSS
VL: QSALTQPRSVSGSPGQSVTISCTGTSSDVGGYNFVSWYQQHPGKAPKLLIYAVSKRPSGVPDRFSGSKSGNTASLTISGLQAEDEADYYCSSYSSESTRVVFGGGTKLTVL
notes: tested as human IgG1 (hIgG1); also called CS19ME3-23 Ab
binds: [1] | [2] | [3]

B2: CS19ME3-30-N (antibody, human IgG1, V domains shown)
VH: B1 VH with E1Q, L5V, L11V, G16R
VL: B1 VL with K55N
notes: tested as human IgG1 (hIgG1); also called CS19ME3-30-N Ab
not listed: [7] | [8]
binds: all other assays above

B3: T4M (antibody, V domains shown)
VH: QVQLQQWGAGLLKPSETLSLTCAVYGGSFNDYYWTWIRQAPGKGLEWIGEITHSGSADYNPSLKSRVTISVDTSKNQFSLKLRSVTAADTAVYYCARGLKLFRWKKTTVTTFPPYYYGMDVWGQGTTVTVSS
VL: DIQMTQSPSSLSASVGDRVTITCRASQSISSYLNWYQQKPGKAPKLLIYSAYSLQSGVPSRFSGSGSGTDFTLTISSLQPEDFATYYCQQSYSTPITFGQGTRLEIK
notes: T4 Vk with S50 and Y52 incorporated; IgG format captured by anti-hFc in SPR; also called T4M Ab
binds: [7] | [8]
